{
  "source": "paper PMC4619830",
  "biological_target": "T1, SoxR (MerR-type HTH transcriptional regulator) (Acinetobacter baumannii AYE) (UniProt C7FFS1)",
  "T1 sequence": "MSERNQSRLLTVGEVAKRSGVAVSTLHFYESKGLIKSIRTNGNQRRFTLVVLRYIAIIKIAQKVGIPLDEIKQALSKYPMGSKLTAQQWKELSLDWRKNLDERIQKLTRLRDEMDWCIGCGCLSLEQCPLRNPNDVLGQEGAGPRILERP",
  "assay": "EMSA",
  "details": "not stated (gel shift as described previously, 20)",
  "data": [
    {"sequence": "GGCTGCTCGGTATGATGTCGTTAATTAACAGAAGTAAATGCCGCTTCGAGATTTTGTGATGATCAACGAGCGGTATAAAAAAGACAAGTAGAATTAAACAATAAATGTAATTAAGACAAAAACAAAGCGTGATTGAATATTTCCAACAAACCAATAAAAAACCAGTTAACGAGTGTCACTTAAAATTCATGAATTCTTCATGATCATGTCAAACAAAGCA (double strand) [abeD promoter fragment]", "values": [
      {"measurement": "binding", "result": "binds"}
    ]}
  ]
}
